{
  "source": "paper PMC5777247",
  "about": "“Cohesin SA2 is a sequence-independent DNA-binding protein that recognizes DNA replication and repair intermediates”",
  "molecules": {"B1": {"name": "ds45 (oligo 1 + oligo 2) (dsDNA)", "DNA 1": "TGTCGCATAGTGTAGTCGGTCTTGTTCGGTCATAGCTCATCGTGG", "DNA 2": "CCACGATGAGCTATGACCGAACAAGACCGACTACACTATGCGACA"}, "B2": {"name": "ds66 non-telomeric (Alexa ss66 + ss66-com) (dsDNA)", "DNA 1": "CTGGATCCGTACAGTGTAAGGGTGAGTGGTTGGGTGTGTGGGTGTTGATGTAGAACAAGAATTCGA", "DNA 2": "TCGAATTCTTGTTCTACATCAACACCCACACACCCAACCACTCACCCTTACACTGTACGGATCCAG"}},
  "key": {"SA2 (STAG2), full length [1]": {"target": "T1, SA2 (STAG2), full length (human, UniProt Q8N3U4 1-1231)", "T1 sequence": "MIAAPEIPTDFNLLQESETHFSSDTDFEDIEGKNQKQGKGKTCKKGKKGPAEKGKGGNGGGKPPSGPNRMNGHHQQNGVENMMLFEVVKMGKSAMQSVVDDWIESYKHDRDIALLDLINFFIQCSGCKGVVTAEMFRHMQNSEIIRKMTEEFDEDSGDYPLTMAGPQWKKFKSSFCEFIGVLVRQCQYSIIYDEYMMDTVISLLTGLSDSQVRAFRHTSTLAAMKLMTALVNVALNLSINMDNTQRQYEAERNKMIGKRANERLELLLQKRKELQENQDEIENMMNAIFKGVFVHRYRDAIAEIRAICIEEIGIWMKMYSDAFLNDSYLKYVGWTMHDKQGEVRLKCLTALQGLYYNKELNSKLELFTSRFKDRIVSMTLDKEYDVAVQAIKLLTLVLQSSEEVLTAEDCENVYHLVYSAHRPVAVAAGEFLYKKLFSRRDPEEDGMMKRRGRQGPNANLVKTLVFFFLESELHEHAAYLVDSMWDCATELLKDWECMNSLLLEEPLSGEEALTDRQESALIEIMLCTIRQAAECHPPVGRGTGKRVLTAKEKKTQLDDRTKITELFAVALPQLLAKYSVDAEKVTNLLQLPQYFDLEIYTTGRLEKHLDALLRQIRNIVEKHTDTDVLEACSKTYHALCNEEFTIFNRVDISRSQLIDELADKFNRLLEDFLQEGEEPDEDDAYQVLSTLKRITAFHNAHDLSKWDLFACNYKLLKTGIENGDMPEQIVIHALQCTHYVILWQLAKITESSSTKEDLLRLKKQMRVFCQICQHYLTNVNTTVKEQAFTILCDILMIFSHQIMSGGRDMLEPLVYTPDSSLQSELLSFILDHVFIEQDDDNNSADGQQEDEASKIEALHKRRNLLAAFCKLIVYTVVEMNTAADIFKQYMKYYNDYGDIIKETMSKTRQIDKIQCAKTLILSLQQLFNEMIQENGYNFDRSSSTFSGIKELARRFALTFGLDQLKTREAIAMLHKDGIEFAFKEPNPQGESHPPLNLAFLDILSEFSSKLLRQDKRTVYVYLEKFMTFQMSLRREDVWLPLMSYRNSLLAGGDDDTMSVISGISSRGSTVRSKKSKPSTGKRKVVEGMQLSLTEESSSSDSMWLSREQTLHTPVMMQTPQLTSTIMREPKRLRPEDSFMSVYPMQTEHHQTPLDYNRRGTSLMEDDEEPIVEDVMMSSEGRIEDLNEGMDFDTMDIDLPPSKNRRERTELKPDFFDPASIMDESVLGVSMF", "assay": "AFM", "settings": "Anisotropy: 20 mM Hepes pH 7.5, 0.1 mM MgCl2, 0.5 mM DTT, 100 mM KCl, 1 nM DNA, AFM: 20 mM Hepes pH 7.5, 100 mM KCl, 0.1 mM MgCl2, room temperature, 20 min"}, "[2]": {"target": "His-tagged full-length SA2 (amino acids 1-1231, 141 kDa) (human) (UniProt Q8N3U4)", "assay": "single-molecule fluorescence imaging on DNA tightropes; QD-labeled His-SA2 on DNA tightropes (centromeric, telomeric, gapped) between silica beads, oblique angle TIRF, no buffer flow; encounters of SA2-QDs on DNA followed in kymographs"}, "[3]": {"target": "His-tagged full-length SA2 (amino acids 1-1231, 141 kDa) (human) (UniProt Q8N3U4)", "assay": "AFM volume analysis; SA2 incubated with linear DNA substrates in 20 mM Hepes (pH 7.5), 100 mM KCl, 0.1 mM MgCl2 at room temperature for 20 min, deposited on mica; number of SA2 molecules in DNA-bound complexes from the AFM volume calibration curve"}, "SA2 (STAG2), full length [4]": {"target": "T1, SA2 (STAG2), full length", "assay": "fluorescence anisotropy", "settings": "Anisotropy: 20 mM Hepes pH 7.5, 0.1 mM MgCl2, 0.5 mM DTT, 100 mM KCl, 1 nM DNA; AFM: 20 mM Hepes pH 7.5, 100 mM KCl, 0.1 mM MgCl2, room temperature, 20 min"}, "SA2 1-1051 [5]": {"target": "T2, SA2 1-1051 (human, UniProt Q8N3U4 1-1051)", "T2 sequence": "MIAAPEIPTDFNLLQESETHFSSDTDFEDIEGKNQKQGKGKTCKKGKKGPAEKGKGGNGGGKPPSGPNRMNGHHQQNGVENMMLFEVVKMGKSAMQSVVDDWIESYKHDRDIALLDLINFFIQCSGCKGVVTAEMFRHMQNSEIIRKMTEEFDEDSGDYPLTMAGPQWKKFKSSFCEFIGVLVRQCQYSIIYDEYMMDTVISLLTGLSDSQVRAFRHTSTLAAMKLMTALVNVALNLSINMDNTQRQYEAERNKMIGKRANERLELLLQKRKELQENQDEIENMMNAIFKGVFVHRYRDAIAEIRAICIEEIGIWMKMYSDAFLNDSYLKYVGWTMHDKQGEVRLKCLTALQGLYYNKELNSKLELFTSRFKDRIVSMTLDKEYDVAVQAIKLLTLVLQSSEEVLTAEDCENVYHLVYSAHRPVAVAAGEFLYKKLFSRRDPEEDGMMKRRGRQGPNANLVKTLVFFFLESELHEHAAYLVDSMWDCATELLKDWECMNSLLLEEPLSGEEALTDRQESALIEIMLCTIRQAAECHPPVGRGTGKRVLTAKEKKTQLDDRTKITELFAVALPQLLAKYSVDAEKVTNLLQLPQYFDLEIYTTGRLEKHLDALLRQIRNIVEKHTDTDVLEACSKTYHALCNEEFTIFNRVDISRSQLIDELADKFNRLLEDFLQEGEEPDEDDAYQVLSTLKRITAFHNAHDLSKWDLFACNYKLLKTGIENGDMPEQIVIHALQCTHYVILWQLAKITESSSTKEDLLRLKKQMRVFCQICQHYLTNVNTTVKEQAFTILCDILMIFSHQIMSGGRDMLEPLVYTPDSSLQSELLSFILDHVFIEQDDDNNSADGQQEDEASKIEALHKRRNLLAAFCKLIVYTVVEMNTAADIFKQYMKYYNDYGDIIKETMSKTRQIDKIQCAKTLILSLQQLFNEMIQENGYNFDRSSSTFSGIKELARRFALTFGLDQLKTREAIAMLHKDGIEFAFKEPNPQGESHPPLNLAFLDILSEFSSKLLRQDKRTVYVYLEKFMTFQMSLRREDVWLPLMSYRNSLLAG", "assay": "AFM", "settings": "Anisotropy: 20 mM Hepes pH 7.5, 0.1 mM MgCl2, 0.5 mM DTT, 100 mM KCl, 1 nM DNA, AFM: 20 mM Hepes pH 7.5, 100 mM KCl, 0.1 mM MgCl2, room temperature, 20 min"}, "SA2 (STAG2), full length [6]": {"target": "T1, SA2 (STAG2), full length", "assay": "fluorescence anisotropy; uncertain: low saturation; Anisotropy: 20 mM Hepes pH 7.5, 0.1 mM MgCl2, 0.5 mM DTT, 100 mM KCl, 1 nM DNA; AFM: 20 mM Hepes pH 7.5, 100 mM KCl, 0.1 mM MgCl2, room temperature, 20 min", "settings": "protein: recombinant; tags: 6xHis; label: 5' Alexa 488"}, "SA2 (STAG2), full length [7]": {"target": "T1, SA2 (STAG2), full length", "assay": "fluorescence anisotropy; Anisotropy: 20 mM Hepes pH 7.5, 0.1 mM MgCl2, 0.5 mM DTT, 100 mM KCl, 1 nM DNA; AFM: 20 mM Hepes pH 7.5, 100 mM KCl, 0.1 mM MgCl2, room temperature, 20 min", "settings": "protein: recombinant, tags: 6xHis"}, "SA2 1-1051 [8]": {"target": "T2, SA2 1-1051", "assay": "fluorescence anisotropy; Anisotropy: 20 mM Hepes pH 7.5, 0.1 mM MgCl2, 0.5 mM DTT, 100 mM KCl, 1 nM DNA; AFM: 20 mM Hepes pH 7.5, 100 mM KCl, 0.1 mM MgCl2, room temperature, 20 min", "settings": "protein: recombinant; tags: 6xHis; label: Alexa 488; blunt"}, "[9]": {"settings": "DNA ends vs internal, no centromere preference"}},
  "note": "“And” between values parts separate entries of the source, which are not always exact repeats. Identical values can stand only once.",
  "data": [
    {"molecule": "Cen-end DNA", "values": [
      {"measurement": "binding signal", "setting": "SA2 (STAG2), full length [1]; [9]", "value": 2600, "unit": "KSP/KNSP"}
    ]},
    {"molecule": "Cen-mid DNA", "values": [
      {"measurement": "binding signal", "setting": "SA2 (STAG2), full length [1]; [9]", "value": 2130, "unit": "KSP/KNSP"}
    ]},
    {"molecule": "His-tagged full-length SA2 (amino acids 1-1231, 141 kDa) (from UniProt Q8N3U4 1-1231) (natural protein)", "values": [
      {"measurement": "percent of SA2-SA2 encounters on DNA that formed complexes", "setting": "[2]", "value": 8, "unit": "%"},
      {"measurement": "stoichiometry N (SA2 molecules)", "setting": "[3]", "value": "5 and 4"}
    ]},
    {"molecule": "circular replication fork template", "values": [
      {"measurement": "binding signal", "setting": "SA2 (STAG2), full length [1]; 55.6% of bound SA2 at fork junction", "value": 26, "unit": "% DNA bound"}
    ]},
    {"molecule": "ds66 telomeric", "values": [
      {"measurement": "Kd", "setting": "SA2 (STAG2), full length [4]", "value": 88, "unit": "nM"}
    ]},
    {"molecule": "linear flap DNA (AFM)", "values": [
      {"measurement": "binding signal", "setting": "SA2 (STAG2), full length [1]; flap vs internal", "value": 4260, "unit": "KSP/KNSP"}
    ]},
    {"molecule": "linear gapped DNA", "values": [
      {"measurement": "binding signal", "setting": "SA2 1-1051 [5]; DNA ends vs internal, substrate for end value inferred", "value": 1690, "unit": "KSP/KNSP"},
      {"measurement": "binding signal", "setting": "SA2 1-1051 [5]; ssDNA gap vs internal", "value": 1810, "unit": "KSP/KNSP"},
      {"measurement": "binding signal", "setting": "SA2 (STAG2), full length [1]; ssDNA gap vs internal", "value": 1990, "unit": "KSP/KNSP"}
    ]},
    {"molecule": "linear replication fork DNA (AFM)", "values": [
      {"measurement": "binding signal", "setting": "SA2 (STAG2), full length [1]; replication fork vs internal", "value": 3150, "unit": "KSP/KNSP"}
    ]},
    {"molecule": "linear single-stranded fork DNA (AFM)", "values": [
      {"measurement": "binding signal", "setting": "SA2 (STAG2), full length [1]; fork vs internal", "value": 2950, "unit": "KSP/KNSP"}
    ]},
    {"molecule": "replication fork (anisotropy)", "values": [
      {"measurement": "Kd", "setting": "SA2 (STAG2), full length [4]", "value": 133, "unit": "nM"}
    ]},
    {"molecule": "TGTCGCATAGTGTAG (ssDNA)", "note": "[ss15]", "values": [
      {"measurement": "Kd", "setting": "SA2 (STAG2), full length [6]", "value": "~1000", "unit": "nM"}
    ]},
    {"molecule": "TGTCGCATAGTGTAGTCGGTCTTGTTCGGTCATAGCTCATCGTGG (ssDNA)", "note": "[ss45 (oligo 1)]", "values": [
      {"measurement": "Kd", "setting": "SA2 (STAG2), full length [7]; label: 5' Alexa 488", "value": "118 ± 5.3", "unit": "nM"}
    ]},
    {"molecule": "B1", "values": [
      {"measurement": "Kd", "setting": "SA2 (STAG2), full length [7]; label: 5' Alexa 488 on strand 1, blunt", "value": "175 ± 12.9", "unit": "nM"}
    ]},
    {"molecule": "B2", "values": [
      {"measurement": "Kd", "setting": "SA2 1-1051 [8]", "value": 198, "unit": "nM"},
      {"measurement": "Kd", "setting": "SA2 (STAG2), full length [7]; label: Alexa 488, blunt", "value": "76.2 ± 3.9", "unit": "nM"}
    ]},
    {"molecule": "TGTCGCATAGTGTAGTCGGTCTTGT (ssDNA)", "note": "[ss25]", "values": [
      {"measurement": "Kd", "setting": "SA2 (STAG2), full length [6]", "value": "~445", "unit": "nM"}
    ]}
  ]
}
